Test system: growth of yeast strains under 51 stress conditions
Assay: Growth assays in 51 stress conditions (Fig. 1E-F, S2D, S5B)
Assay type: cell-based, Saccharomyces cerevisiae
Set-up: key to Growth (Fig. S2D) / growth of ABP1 SH3-swapped strains in stress condition: log2 colony size, average of median per strain (growth score)
Details: ABP1 SH3-swapped strains
Method in brief: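 Yeast WT, SH3-deleted, KO, SH3-swapped and SH3-shuffled strains pinned in 1536 format, 12 replicates each; pregrown on YPD 2 days at 30 °C, then replicated onto 51 media at 37 °C and imaged every 2 h. Growth score = mean of per-plate median log2 colony size at 74 h.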

B1: MYO5 (protein, UniProt Q04439 1-1219, looked up)
Myosin-5: MAILKRGARKKVHQEPAKRSANIKKATFDSSKKKEVGVSDLTLLSKISDEAINENLKKRFLNATIYTYIGHVLISVNPFRDLGIYTDAVMNEYKGKNRLEVPPHVFAIAESMYYNMKSYNENQCVIISGESGAGKTEAAKRIMQYIAAASSTHTESIGKIKDMVLATNPLLESFGCAKTLRNNNSSRHGKYLEIKFNNQFEPCAGNITNYLLEKQRVVSQIKNERNFHIFYQFTKGASDAYRQTFGVQKPEQYVYTAAAGCISAETIDDLQDYQETLKAMRVIGLGQEEQDQIFRMLAAILWIGNVSFIENEEGNAQVRDTSVTDFVAYLLQIDSQLLIKSLVERIMETNHGMKRGSVYHVPLNIVQADAVRDALAKAIYNNLFDWIVSRVNKSLQAFPGAEKSIGILDIYGFEIFEHNSFEQICINYVNEKLQQIFIQLTLKSEQETYEREKIQWTPIKYFDNKVVCDLIEARRPPGIFAAMNDSVATAHADSNAADQAFAQRLNLFTTNPHFDLRSNKFVIKHYAGDVTYDIDGITDKNKDQLQKDLVELIGTTTNTFLATIFPDTVDRESKRRPPTAGDKIIKSANDLVETLSKAQPSYIRTIKPNETKSPNDYDDRQVLHQIKYLGLQENVRIRRAGFAYRQVFEKFVERFYLLSPHCSYAGDYTWQGDTLDAVKYILQDSSIPQQEYQLGVTSVFIKTPETLFALEHMRDRYWHNMAARIQRAWRRFLQRRIDAATKIQRTIRERKEGNKYEKLRDYGTKVLGGRKERRSMSLLGYRAFMGDYLSCNESKSKGAYIKRQVSIKEKVIFSIHGEALHTKFGRSAQRLKKTFLLTPTTLYIVGQTLVQNAMTYTQDYKIDVRNIQAVSLTNLQDDWVAIKLASSGQPDPLINTYFKTELITHLKRLNDKIQIKIGSAIEYQKKPGKLHSVKCQINESAPKYGDIYKSSTISVRRGNPPNSQVHKKPRKKSSISSGYHASSSQATRRPVSIAAAQHVPTAPASRHSKKPAPPPPGMQNKAATRRSVPNPASTLTASQSNARPSPPTAATRATPAATPAAAAMGSGRQANIPPPPPPPPPSSKPKEPMFEAAYDFPGSGSPSELPLKKGDVIYITREEPSGWSLGKLLDGSKEGWVPTAYMKPHSGNNNIPTPPQNRDVPKPVLNSVQHDNTSANVIPAAAQASLGDGLANALAARANKMRLESDDEEANEDEEEDDW
- Growth (Fig. S2D) (Bathophenanthroline.0.1uM): 10.7807
- Growth (Fig. S2D) (Bathophenanthroline.10uM): 10.5943
- Growth (Fig. S2D) (Bathophenanthroline.1uM): 10.7288
- Growth (Fig. S2D) (CaCl2.100mM): 10.8763
- Growth (Fig. S2D) (CaCl2.250mM): 10.7748
- Growth (Fig. S2D) (CaCl2.500mM): 10.1951
- Growth (Fig. S2D) (Caffein.10mM): 10.0771
- Growth (Fig. S2D) (Caffein.2mM): 10.9616
- Growth (Fig. S2D) (CdCl2.100uM): 9.383
- Growth (Fig. S2D) (CdCl2.10uM): 10.8746
- Growth (Fig. S2D) (CdCl2.50uM): 9.758
- Growth (Fig. S2D) (CuSO4.1mM): 10.0515
- Growth (Fig. S2D) (CuSO4.5mM): 7.47
- Growth (Fig. S2D) (Cycloheximide.0.05.uM): 11.0185
- Growth (Fig. S2D) (Cycloheximide.0.2.uM): 10.5753
- Growth (Fig. S2D) (Cycloheximide.0.5.uM): 10.0157
- Growth (Fig. S2D) (DMSO.2.): 11.0566
- Growth (Fig. S2D) (DMSO.6.): 9.912
- Growth (Fig. S2D) (DMSO.8.): 9.351
- Growth (Fig. S2D) (Ethanol.2.): 10.6973
- Growth (Fig. S2D) (Ethanol.6.): 10.1096
- Growth (Fig. S2D) (Ethanol.8.): 9.896
- Growth (Fig. S2D) (Galactose.2.): 10.7371
- Growth (Fig. S2D) (Glycerol.2.): 8.938
- Growth (Fig. S2D) (Hydroxyurea.25mM): 10.701
- Growth (Fig. S2D) (Hygromycin.190uM): 10.9824
- Growth (Fig. S2D) (Hygromycin.19uM): 10.9737
- Growth (Fig. S2D) (Hygromycin.95uM): 11.0723
- Growth (Fig. S2D) (MMS.0.004.): 10.9048
- Growth (Fig. S2D) (MMS.0.02.): 10.5139
- Growth (Fig. S2D) (MMS.0.04.): 9.517
- Growth (Fig. S2D) (Menadione.100uM): 10.5627
- Growth (Fig. S2D) (Menadione.200uM): 10.4133
- Growth (Fig. S2D) (Menadione.50uM): 10.7993
- Growth (Fig. S2D) (NaCl.0.25M): 10.7283
- Growth (Fig. S2D) (NaCl.1M): 9.177
- Growth (Fig. S2D) (Nitroquinoline.10uM): 10.6793
- Growth (Fig. S2D) (Nitroquinoline.50uM): 10.4598
- Growth (Fig. S2D) (Nystatin.0.01uM): 11.0134
- Growth (Fig. S2D) (Nystatin.0.1uM): 10.9398
- Growth (Fig. S2D) (Raffinose.2.): 10.9979
- Growth (Fig. S2D) (Rapamycin.10nM): 9.833
- Growth (Fig. S2D) (Rapamycin.50nM): 9.517
- Growth (Fig. S2D) (SC.pH3): 10.3672
- Growth (Fig. S2D) (SC.pH6): 10.9549
- Growth (Fig. S2D) (SDS.0.01.): 10.9651
- Growth (Fig. S2D) (SDS.0.02.): 10.9575
- Growth (Fig. S2D) (SDS.0.05.): 10.8115
- Growth (Fig. S2D) (Sorbitol.10mM): 10.9933
- Growth (Fig. S2D) (Sorbitol.1mM): 11.0521
- Growth (Fig. S2D) (Sorbitol.5mM): 10.9248

B2: PEX13 (protein, UniProt P80667 1-386, looked up)
Peroxisomal membrane protein …: MSSTAVPRPKPWETSASLEEPQRNAQSLSAMMTSNQQDSRPTEESNNSNSASESAPEVLPRPAALNSSGTYGESNTIPGIYGNSNYGIPYDNNPYSMNSIYGNSIGRYGYGGSYYGNNYGSFYGGGYGAGAGYGMNNGSGLGESTKATFQLIESLIGAVTGFAQMLESTYMATHNSFFTMISVAEQFGNLKEMLGSFFGIFAIMKFLKKILYRATKGRLGIPPKNFAESEGSKNKLIEDFQKFNDSGTINSNEKATRRKISWKPLLFFLMAVFGFPYLLNKFITKLQTSGTIRASQGNGSEPIDPSKLEFARALYDFVPENPEMEVALKKGDLMAILSKKDPLGRDSDWWKVRTKNGNIGYIPYNYIEIIKRRKKIEHVDDETRTH
- Growth (Fig. S2D) (Bathophenanthroline.0.1uM): 10.7929
- Growth (Fig. S2D) (Bathophenanthroline.10uM): 10.6448
- Growth (Fig. S2D) (Bathophenanthroline.1uM): 10.7999
- Growth (Fig. S2D) (CaCl2.100mM): 10.8263
- Growth (Fig. S2D) (CaCl2.250mM): 10.7201
- Growth (Fig. S2D) (CaCl2.500mM): 10.3034
- Growth (Fig. S2D) (Caffein.10mM): 10.0127
- Growth (Fig. S2D) (Caffein.2mM): 10.9279
- Growth (Fig. S2D) (CdCl2.100uM): 9.606
- Growth (Fig. S2D) (CdCl2.10uM): 10.8888
- Growth (Fig. S2D) (CdCl2.50uM): 9.97
- Growth (Fig. S2D) (CuSO4.1mM): 10.4898
- Growth (Fig. S2D) (CuSO4.5mM): 8.152
- Growth (Fig. S2D) (Cycloheximide.0.05.uM): 11.0541
- Growth (Fig. S2D) (Cycloheximide.0.2.uM): 10.6387
- Growth (Fig. S2D) (Cycloheximide.0.5.uM): 10.1719
- Growth (Fig. S2D) (DMSO.2.): 11.0404
- Growth (Fig. S2D) (DMSO.6.): 10.0301
- Growth (Fig. S2D) (DMSO.8.): 9.367
- Growth (Fig. S2D) (Ethanol.2.): 10.7664
- Growth (Fig. S2D) (Ethanol.6.): 10.3235
- Growth (Fig. S2D) (Ethanol.8.): 10.0926
- Growth (Fig. S2D) (Galactose.2.): 10.787
- Growth (Fig. S2D) (Glycerol.2.): 9.849
- Growth (Fig. S2D) (Hydroxyurea.25mM): 10.7235
- Growth (Fig. S2D) (Hygromycin.190uM): 10.9621
- Growth (Fig. S2D) (Hygromycin.19uM): 10.9745
- Growth (Fig. S2D) (Hygromycin.95uM): 11.0265
- Growth (Fig. S2D) (MMS.0.004.): 10.9502
- Growth (Fig. S2D) (MMS.0.02.): 10.7047
- Growth (Fig. S2D) (MMS.0.04.): 10.0276
- Growth (Fig. S2D) (Menadione.100uM): 10.6371
- Growth (Fig. S2D) (Menadione.200uM): 10.4195
- Growth (Fig. S2D) (Menadione.50uM): 10.8434
- Growth (Fig. S2D) (NaCl.0.25M): 10.6874
- Growth (Fig. S2D) (NaCl.1M): 9.71
- Growth (Fig. S2D) (Nitroquinoline.10uM): 10.7399
- Growth (Fig. S2D) (Nitroquinoline.50uM): 10.726
- Growth (Fig. S2D) (Nystatin.0.01uM): 11.0207
- Growth (Fig. S2D) (Nystatin.0.1uM): 11.0033
- Growth (Fig. S2D) (Raffinose.2.): 10.9918
- Growth (Fig. S2D) (Rapamycin.10nM): 9.862
- Growth (Fig. S2D) (Rapamycin.50nM): 9.428
- Growth (Fig. S2D) (SC.pH3): 10.3898
- Growth (Fig. S2D) (SC.pH6): 10.9788
- Growth (Fig. S2D) (SDS.0.01.): 10.9752
- Growth (Fig. S2D) (SDS.0.02.): 10.9697
- Growth (Fig. S2D) (SDS.0.05.): 10.895
- Growth (Fig. S2D) (Sorbitol.10mM): 10.9735
- Growth (Fig. S2D) (Sorbitol.1mM): 11.0343
- Growth (Fig. S2D) (Sorbitol.5mM): 10.9175
